Laboratory results as given in patent US20260248940A1, “Antibody-Drug Conjugates and Uses Thereof” (Vivasor, Inc., priority 2023, published 2026).

How the values were obtained:
NCI-H929 (B7-H3−) cells = test: Cell viability assay (CellTiter-Glo 2.0, 120-hour) in NCI-H929 cells; format: cell-based; conditions: Homo sapiens; Table 4A; NCI-H929, B7-H3 negative; 120-hour treatment
Hs700T (B7-H3+) cells = test: Cell viability assay (CellTiter-Glo 2.0, 120-hour) in Hs700T cells; format: cell-based; conditions: Homo sapiens, Hs 700T, Table 4A, B7-H3 positive, 120-hour treatment
U2OS (B7-H3+) cells = test: Cell viability assay (CellTiter-Glo 2.0, 120-hour) in U2OS cells; format: cell-based; conditions: Homo sapiens, Table 4A, B7-H3 positive, 120-hour treatment
PA-1 (B7-H3+) cells = test: Cell viability assay (CellTiter-Glo 2.0, 120-hour) in PA-1 cells; format: cell-based; conditions: Homo sapiens; Table 4A; PA-1, B7-H3 positive; 120-hour treatment
Calu6 (B7-H3+) cells = test: Cell viability assay (CellTiter-Glo 2.0, 120-hour) in Calu6 cells; format: cell-based; conditions: Homo sapiens, Calu-6; Table 4A; Calu6, B7-H3 positive; 120-hour treatment
[1] = test system: B7-H3-expressing renal cell and bladder carcinoma; conditions: Loo et al., 2012; cited from earlier work
[2] = cynomolgus monkeys; Loo et al., 2012; cited from earlier work
human B7-H3 protein [3] = biological target: T1, human B7-H3 protein (human, UniProt Q5ZPR3 29-534); test: flow cytometry on MDA-MB-231 cells, PE-labelled goat anti-human secondary antibody, geometric mean fluorescence
T1 construct: Endogenous B7-H3 on human cancer cell lines; also called CD276; B7-H3 receptor
T1 sequence: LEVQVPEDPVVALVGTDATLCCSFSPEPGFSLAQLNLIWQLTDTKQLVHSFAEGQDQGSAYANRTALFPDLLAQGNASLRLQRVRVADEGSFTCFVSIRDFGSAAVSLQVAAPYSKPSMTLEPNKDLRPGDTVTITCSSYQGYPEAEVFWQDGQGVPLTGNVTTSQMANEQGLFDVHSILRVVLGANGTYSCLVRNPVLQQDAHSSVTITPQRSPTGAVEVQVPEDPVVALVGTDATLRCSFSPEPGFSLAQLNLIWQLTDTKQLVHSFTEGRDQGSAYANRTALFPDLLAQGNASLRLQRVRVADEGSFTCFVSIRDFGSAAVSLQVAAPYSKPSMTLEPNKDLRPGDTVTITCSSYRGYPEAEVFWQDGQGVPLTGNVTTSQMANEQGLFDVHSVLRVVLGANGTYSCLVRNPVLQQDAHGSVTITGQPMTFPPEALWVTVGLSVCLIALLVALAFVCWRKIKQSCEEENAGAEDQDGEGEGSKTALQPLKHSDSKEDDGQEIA
Procedure: (§1) B7-H3 binding: Tumor cell cultures were harvested by non-enzymatic cell dissociation and plated in RPMI1640 supplemented with 10% fetal bovine serum (FBS) in a 96 well plate. A dilution curve of B7H3 antibody was prepared as a 2× solution and added to each well and incubated at 4C for 1 hour. The cells were washed with PBS+2% FBS+5 mM EDTA (FACS Buffer) before incubation with R-Phycoerythrin labeled goat anti-human secondary antibody for 1 hour at 4C. Cells were washed with FACS buffer and analyzed by flow cytometry.

human B7-H3 protein [4] = biological target: T1, human B7-H3 protein; test: flow cytometry on FaDu cells, PE-labelled goat anti-human secondary antibody, geometric mean fluorescence
Procedure: as §1

human B7-H3 protein [5] = biological target: T1, human B7-H3 protein; test: flow cytometry on U2OS cells, PE-labelled goat anti-human secondary antibody, geometric mean fluorescence
Procedure: as §1

human B7-H3 protein [6] = biological target: T1, human B7-H3 protein; test: flow cytometry on HCT-116 cells, PE-labelled goat anti-human secondary antibody, geometric mean fluorescence
Procedure: as §1

human B7-H3 protein [7] = biological target: T1, human B7-H3 protein; test: flow cytometry on Hs700T cells, PE-labelled goat anti-human secondary antibody, geometric mean fluorescence
Procedure: as §1

human B7-H3 protein [8] = biological target: T1, human B7-H3 protein; test: flow cytometry on SkNBE(2) cells, PE-labelled goat anti-human secondary antibody, geometric mean fluorescence
Procedure: as §1

human B7-H3 protein [9] = biological target: T1, human B7-H3 protein; test: flow cytometry on A549 cells, PE-labelled goat anti-human secondary antibody, geometric mean fluorescence
Procedure: as §1

Molecule: CC[C@@]1(O)C(=O)OCc2c1cc1n(c2=O)Cc2c-1nc1cc(F)c(C)c3c1c2[C@@H](NC(=O)CO)CC3 [Dxd]
- EC50 (NCI-H929 (B7-H3−) cells): 4.7 nM
- EC50 (Hs700T (B7-H3+) cells): 43.9 nM
- EC50 (U2OS (B7-H3+) cells): 337 nM
- EC50 (PA-1 (B7-H3+) cells): 2 nM
- EC50 (Calu6 (B7-H3+) cells): 7 nM

B1: Enoblituzumab (antibody, chains of the INN, looked up)
heavy: EVQLVESGGGLVQPGGSLRLSCAASGFTFSSFGMHWVRQAPGKGLEWVAYISSDSSAIYYADTVKGRFTISRDNAKNSLYLQMNSLRDEDTAVYYCGRGRENIYYGSRLDYWGQGTTVTVSSASTKGPSVFPLAPSSKSTSGGTAALGCLVKDYFPEPVTVSWNSGALTSGVHTFPAVLQSSGLYSLSSVVTVPSSSLGTQTYICNVNHKPSNTKVDKRVEPKSCDKTHTCPPCPAPELVGGPSVFLLPPKPKDTLMISRTPEVTCVVVDVSHEDPEVKFNWYVDGVEVHNAKTKPPEEQYNSTLRVVSVLTVLHQDWLNGKEYKCKVSNKALPAPIEKTISKAKGQPREPQVYTLPPSREEMTKNQVSLTCLVKGFYPSDIAVEWESNGQPENNYKTTPLVLDSDGSFFLYSKLTVDKSRWQQGNVFSCSVMHEALHNHYTQKSLSLSPG
light: DIQLTQSPSFLSASVGDRVTITCKASQNVDTNVAWYQQKPGKAPKALIYSASYRYSGVPSRFSGSGSGTDFTLTISSLQPEDFATYYCQQYNNYPFTFGQGTKLEIKRTVAAPSVFIFPPSDEQLKSGTASVVCLLNNFYPREAKVQWKVDNALQSGNSQESVTEQDSKDSTYSLSSTLTLSKADYEKHKVYACEVTHQGLSSPVTKSFNRGEC
notes: "Enoblituzumab (MGA271; from Macrogenics), a humanized mAb targeting B7-H3"
- antitumor activity in xenograft models [1]: potent antitumor activity
- safety findings in toxicology studies [2]: no significant safety findings

B2: anti-B7-H3 antibody (B7-H3 VA clone) (antibody, V domains shown)
VH: QVQLVQSGAEVKKPGASVKVSCKASGYTFTDSYMHWVRQAPGQGLEWMGWISPRTGGTDYAQKFQGRVTMTRDTSISTAYMELSRLRSDDTAVYYCARGSSRGNDYWGQGTLVTVSS
VL: QSVLTQPASVSGSPGQSITISCTGTGSDVGGYNYVSWYQQHPGKAPKLIIYDVTKRPSGFSNRFSGSKSGNTASLTISGLQAEDEADYYCSSYTSRRTYVFGTGTKLTVL
notes: IgG/IgG1 appears only as an embodiment; It was detected with a goat anti-human secondary antibody; also called anti-B7H3 VA clone; Sorrento's VA clone
- Kd (human B7-H3 protein [3]): 168 pM
- EC50 (read off the curve) (human B7-H3 protein [4]): ~200 pM
- Kd (human B7-H3 protein [4]): 200 pM
- EC50 (read off the curve) (human B7-H3 protein [5]): ~300 pM
- Kd (human B7-H3 protein [5]): 257 pM
- Kd (human B7-H3 protein [6]): 238 pM
- EC50 (read off the curve) (human B7-H3 protein [7]): ~500 pM
- Kd (human B7-H3 protein [7]): 486 pM
- Kd (human B7-H3 protein [8]): 96.8 pM
- Kd (human B7-H3 protein [9]): 192 pM
